Assay results as given in article PMC9372576, “Interaction of the gas vesicle proteins GvpA, GvpC, GvpN, and GvpO of Halobacterium salinarum” (Frontiers in Microbiology, 2022).

T1: GvpA fused to NGFP or CGFP (Halobacterium salinarum, UniProt P08958 1-76)
T1 construct: the entire GvpA of the p-vac region of Halobacterium salinarum; gvpA reading frame; NGFP (mGFP2 up to aa 157) or CGFP (from aa 158) at the N- or C-terminus through a 14 aa (pJAS) or 16 aa (pWLfdx) linker; with GvpF and its variants CGFP stood at the C-terminus of GvpA (AC); also called NA; AN; source: Hfx. volcanii WR340 transformant, split-GFP fusion in living cells
T1 sequence (looked up): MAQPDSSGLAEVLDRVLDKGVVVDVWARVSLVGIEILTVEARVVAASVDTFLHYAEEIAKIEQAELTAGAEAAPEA

T2: GvpA fragment A44-76 (Halobacterium salinarum, UniProt P08958 44-76)
T2 construct: GvpA of Halobacterium salinarum, mainly helix alpha3; vector described in earlier work; source: Hfx. volcanii WR340 transformant, split-GFP fusion in living cells
T2 chain (looked up): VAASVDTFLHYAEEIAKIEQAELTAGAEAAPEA

B1: GvpF fused to NGFP or CGFP (natural protein, Halobacterium salinarum, UniProt Q9HI21 1-213, looked up)
chain: MTENLYTYGIIEQEDLELDVEGVAGAEQVYTVDYKTLSAVVSDIDTTDPERTDEDVEAHNNVLQEVLKHEEERTVVPMSFGMAFKSARTLKGVLRGARRALRSTLNDIEGTVELGVKILGPGDDTVPREEIQENVTDQLADLSINETENDLFTDRLIINKSYLVDFEKRDAFDSAIDDVEAEYDELTIQYTGPWPPYNFVDIHIGAEQQQGGR
notes: GvpF (wild type) of the p-vac region of Halobacterium salinarum; R213 is the very last aa; parent of the GvpF variants; also called Fwt; WT; source: Hfx. volcanii WR340 transformant, split-GFP fusion in living cells
B2: GvpC C-terminal fragment Cterm (domain or fragment, Halobacterium salinarum, UniProt P24574 329-382, looked up)
chain: ETEEEAPEDMVQCRVCGEYYQAITEPHLQTHDMTIQEYRDEYGEDVPLRPDDKT
notes: GvpC of Halobacterium salinarum, aa 329-382, the globular C-terminal domain with a zinc-finger motif; GFP fragment at the N- or C-terminus; source: Hfx. volcanii WR340 transformant, split-GFP fusion in living cells
B3: GvpH fused to NGFP or CGFP (natural protein, Halobacterium salinarum, UniProt P24372 1-182, looked up)
chain: MVPDENDDASDDQSSQLSGLLDQLHTLVEVLADIEEEGGHRHESGRIDRGNARIDYDYDVSIGLGRADGSSYDEEPSSNRSRSEQRSGQQRTTEDSIHVETRGGTSGDELVVVADLPGVTDDDVDVALDTDEQALTLRVDDDVVERVVLDRPDVAITDMTLRNQVLEIRLARTSDTDGGEST
notes: accessory gas vesicle protein GvpH of Halobacterium salinarum; construct of earlier work; source: Hfx. volcanii WR340 transformant, split-GFP fusion in living cells
B4: GvpL fused to NGFP or CGFP (natural protein, Halobacterium salinarum, UniProt Q9HI27 1-281, looked up)
chain: MTDHRPSPEEEQTTANEERTVSNGRYLYCVVDTTSSESATLSTTGVDDNPVYVVEADGVGAVVHDCETVYETEDLEQVKRWLVTHQQVVDAASDAFGTPLPMRFDTVLEGGDASIERWLEDHYEGFRDELASFAGVWEYRINLLWDSAPFEETIADRDDRLRELRQRQQQSGAGKKFLLEKQSDQRLQELKRERRTELADQLKEAITPVVNDLTEQDTNTPLQDEHSSIEKEQIVRFAVLADEDDETALGDRLDTIVEHEGVEIRFTGPWPPYTFAPDIGK
notes: accessory gas vesicle protein GvpL of Halobacterium salinarum; construct of earlier work; source: Hfx. volcanii WR340 transformant, split-GFP fusion in living cells
B5: GvpI fused to NGFP or CGFP (natural protein, Halobacterium salinarum, UniProt Q9HI24 1-144, looked up)
chain: MSDKQQQKHKQKARQARVKAQINRDKARRNLLRQREKLARRRTRNRKQSEPRRDDSDGDDTDGETVKNPAAHSTMPPQKSNAENAVRNSHSTVPKTPKYSDVTARERLYGQRLHQKTAGGNSEASAPSDESASGSPTEDEVNDE
notes: accessory gas vesicle protein GvpI of Halobacterium salinarum; construct of earlier work; source: Hfx. volcanii WR340 transformant, split-GFP fusion in living cells
B6: GvpJ fused to NGFP or CGFP (natural protein, Halobacterium salinarum, UniProt P24374 1-114, looked up)
chain: MSDPKPTRSQGDLAEMLEMLLDKGVVVNADIAVSVGDTELLGIELRAAIASFETAAEYGLEFPTGTDMERVESAANISPDQSDPASETQSETESTNPLSDDSTPTASTSAEETK
notes: accessory gas vesicle protein GvpJ of Halobacterium salinarum; construct of earlier work; source: Hfx. volcanii WR340 transformant, split-GFP fusion in living cells
B7: GvpK fused to NGFP or CGFP (natural protein)
chain: not shown
notes: accessory gas vesicle protein GvpK of Halobacterium salinarum; construct of earlier work; source: Hfx. volcanii WR340 transformant, split-GFP fusion in living cells
B8: GvpM fused to NGFP or CGFP (natural protein, Halobacterium salinarum, UniProt P24377 1-84, looked up)
chain: MEPTKDETHAIVEFVDVLLRDGAVIQADVIVTVADIPLIGISLRAAIAGMTTMTEYGLFEEWDAAHRQQSEAFTTSPTADRRED
notes: accessory gas vesicle protein GvpM of Halobacterium salinarum; construct of earlier work; source: Hfx. volcanii WR340 transformant, split-GFP fusion in living cells
B9: GvpG fused to NGFP or CGFP (natural protein, Halobacterium salinarum, UniProt P24371 1-83, looked up)
chain: MFIIDDLFVSPFFSLLDILQTMALDEMYDTKSIRDDIKENQLLYEVGERSDEEYQQRKQALESQLEMAEQVQEQMRDRMEVKK
notes: accessory gas vesicle protein GvpG of Halobacterium salinarum; construct of earlier work; source: Hfx. volcanii WR340 transformant, split-GFP fusion in living cells
B10: GvpA fragment A1-34 (domain or fragment, Halobacterium salinarum, UniProt P08958 1-34, looked up)
chain: MAQPDSSGLAEVLDRVLDKGVVVDVWARVSLVGI
notes: GvpA of Halobacterium salinarum, alpha1 plus beta-sheet 1; vector described in earlier work; source: Hfx. volcanii WR340 transformant, split-GFP fusion in living cells
B11: GvpA fragment A1-43 (domain or fragment, Halobacterium salinarum, UniProt P08958 1-43, looked up)
chain: MAQPDSSGLAEVLDRVLDKGVVVDVWARVSLVGIEILTVEARV
notes: GvpA of Halobacterium salinarum, alpha1-beta1-beta2; vector described in earlier work; source: Hfx. volcanii WR340 transformant, split-GFP fusion in living cells
B12: GvpA fragment A20-47 (domain or fragment, Halobacterium salinarum, UniProt P08958 20-47, looked up)
chain: GVVVDVWARVSLVGIEILTVEARVVAAS
notes: GvpA of Halobacterium salinarum, the two beta-sheets beta1-beta2; vector described in earlier work; source: Hfx. volcanii WR340 transformant, split-GFP fusion in living cells
B13: GvpC fused to NGFP or CGFP (natural protein, Halobacterium salinarum, UniProt P24574 1-382, looked up)
chain: MSVTDKRDEMSTARDKFAESQQEFESYADEFAADITAKQDDVSDLVDAITDFQAEMTNTTDAFHTYGDEFAAEVDHLRADIDAQRDVIREMQDAFEAYADIFATDIADKQDIGNLLAAIEALRTEMNSTHGAFEAYADDFAADVAALRDISDLVAAIDDFQEEFIAVQDAFDNYAGDFDAEIDQLHAAIADQHDSFDATADAFAEYRDEFYRIEVEALLEAINDFQQDIGDFRAEFETTEDAFVAFARDFYGHEITAEEGAAEAEAEPVEADADVEAEAEVSPDEAGGESAGTEEEETEPAEVETAAPEVEGSPADTADEAEDTEAEEETEEEAPEDMVQCRVCGEYYQAITEPHLQTHDMTIQEYRDEYGEDVPLRPDDKT
notes: GvpC of the p-vac region of Halobacterium salinarum; gvpC amplified from the p-vac region; GFP fragment at the N- or C-terminus, 14 or 16 aa linker; source: Hfx. volcanii WR340 transformant, split-GFP fusion in living cells
B14: GvpN fused to NGFP or CGFP (natural protein, Halobacterium salinarum, UniProt Q9HI16 1-347, looked up)
chain: MTNESRKRKVRGSQIRSSRGDKKQGRSQSRDDKEIERLERQNDARGQESSTHVDEGFVPEEQSFIETESVNRVESRMERWLDVGRPVHLIGPTGCGKTSLAMHVARERDRPVVWINGDAELTTSDLVGEYAEKERISEHDQFIHNVVKSKDIIRDRWVDNPLTLAVQEGATLVYNEFSRTKPVANNVLLSVFEEGVLELPGKRGKSRYVDVHPEFRTILTSNSVEYAGVHEPQDALLDRLIGIYMDFYDLDTEIEIVRAHVDKSADTNVEDIVRVLRELRERLDITVGTRAAIMANEGATTVDTVDQAVLTDICTDVLASKVAQRSDVRGLREEIESAIDDMEVALS
notes: GvpN of the p-vac region of Halobacterium salinarum; gvpN amplified from the p-vac region; GFP fragment at the N- or C-terminus, 14 or 16 aa linker; source: Hfx. volcanii WR340 transformant, split-GFP fusion in living cells

Molecular target: T1, GvpA fused to NGFP or CGFP
Assay: split reporter (BiFC, NanoBiT); split-GFP (NGFP and CGFP of salt-stable mGFP2) in Hfx. volcanii transformants, 24 h 37 °C then 24 h 30 °C; relative fluorescence (rf) against the wild type; the highest of eight tag combinations is given
Settings: partners not purified

relative fluorescence (rf) [LAU/mm^2] | Binder
18 | B1
< 2.5 | B2

Molecular target: B13
Assay: as above
Settings: partners not purified

relative fluorescence (rf) [LAU/mm^2] | Binder
> 7.5 | B1
> 7.5 | B3
28.6 | B4
> 7.5 | B5

Molecular target: B14
Assay: as above
Settings: partners not purified

relative fluorescence (rf) [LAU/mm^2] | Binder
< 5 | B6
< 5 | B1
< 5 | B3
< 5 | B7
< 5 | B8
16.9 | B4
< 5 | B5
< 5 | B9

Molecular target: B2
Assay: as above
Settings: partners not purified

relative fluorescence (rf) [LAU/mm^2] | Binder
> 18 | B1
42.6 | B3
> 18 | B4
> 18 | B5

Molecular target: B11
Assay: as above
Settings: partners not purified

relative fluorescence (rf) [LAU/mm^2] | Binder
≤ 0.48 | B10

Molecular target: B12
Assay: as above
Settings: partners not purified

relative fluorescence (rf) [LAU/mm^2] | Binder
≤ 0.48 | B10
≤ 0.48 | B11

Molecular target: T2, GvpA fragment A44-76
Assay: as above
Settings: partners not purified

relative fluorescence (rf) [LAU/mm^2] | Binder
≤ 0.48 | B10
≤ 0.48 | B12
≤ 0.48 | B11

Molecular target: the molecule itself
Assay: as above
Settings: not given

Binder | relative fluorescence (rf) [LAU/mm^2]
B2 | 20.7
B13 | 14.5
B14 | > 10
